# ± gives the standard deviation.
# Assay: protein stability index of a GFP-peptide fusion (GPS, HEK-293T) (PSI 1-6); higher = more stable
# [1] = treatment: DMSO, c terminus: a fixed tail appended
# [2] = treatment: MLN4924 1 uM, 8 h, c terminus: a fixed tail appended
# 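Also: 24-mer peptide tiles fused after GFP, lentivirally expressed, FACS-sorted into six equal bins by GFP/DsRed ratio, decoded by Illumina sequencing, PSI is the read-weighted mean bin number.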
Sequence,protein stability index [1],protein stability index [2],"protein stability index (treatment: DMSO, c terminus: native)","protein stability index (treatment: MLN4924 1 uM, 8 h, c terminus: native)"
LQGVPERLLGTAGTEEKKKLIRDF [VTI1B],4.25 ± 0.44,4.63 ± 0.2,–,–
RAIPELTKLLNDEDQVVVNKAAVM [CTNNB1],3.91 ± 0.16,3.89 ± 0.21,–,–
GPVRSSSGMGGRAPVSRGRDSYGG [RBMX],4.32 ± 0.12,4.53 ± 0.17,–,–
RSDLYSSGRDRVGRQERGLPPSME [RBMX],4.41 ± 0.091,4.51 ± 0.23,–,–
RVTSLANLISPVRNGAVRRFGQTI [NET1],2.55 ± 0.14,2.63 ± 0.33,–,–
KGFIQKGNLNIHQRTHTGEKPYGC [ZNF649],3.67 ± 0.14,3.68 ± 0.2,–,–
VEEPSSKDVMEKREDSKEAEKSGE [CHGA],5.5 ± 0.36,5.58 ± 0.32,–,–
EKNNHRAKDLRAPPEQGKIFIARR [SOAT1],3.16 ± 0.33,3.27 ± 0.5,–,–
QRTVGQLMELCRLYHRADVEKVLR [EDARADD],2.38 ± 0.45,2 ± 0.22,–,–
RMLKDNKKNWRRVYKSLLLLAYLI [CLINT1],2.45 ± 0.38,2.63 ± 0.23,–,–
GGYETFYSEYPECCVDVKPISQEK [DUSP5],4.25 ± 0.29,4.22 ± 0.18,–,–
IISKPVPQTLIMAYDYAKEVNSAE [FEM1C],2.93 ± 0.34,2.81 ± 0.16,–,–
ICPKCWTLMTMAIRIIDRALKEDF [PRIM1],2.25 ± 0.26,2.57 ± 0.37,–,–
SLGLDHCHSFISGTAPLNQETAEF [ACSBG2],4.18 ± 0.21,4.06 ± 0.16,–,–
MEEVCGGEKPYLSPDILEEKHCEF [ATL3],5.15 ± 0.29,5.01 ± 0.14,–,–
HGFLFMIFQIGVLGFGPTYVVLAY [SOAT1],2.86 ± 0.85,2.71 ± 0.8,–,–
YGEFYKSLTNDWEDHLAVKHFSVE [HSP90AB1],2.46 ± 0.31,2.87 ± 0.28,–,–
GSLYVFGGTTGYIYSTDLHKLDLN [KLHDC10],2.4 ± 0.5,2.66 ± 0.46,–,–
EDYSRDEDHIAHIIELLGSIPRHF [SRPK2],2.62 ± 0.13,2.85 ± 0.31,–,–
SMRKIVATWMLEVCEEQKCEEEVF [CCND1],2.3 ± 0.25,2.47 ± 0.17,–,–
CLECGKSFCHGSSLKRHLKTHTGE [ZNF449],4.78 ± 0.16,5.273 ± 0.015,–,–
QQQCHEMAERLEDSVLKGMQAASS [SDE2],4.17 ± 0.33,4.2 ± 0.41,–,–
ESPRKRKKATEAIDSLRKSKRLRN [FBXO28],5.3 ± 0.23,5.33 ± 0.14,–,–

Sequence,protein stability index [1],protein stability index [2],"protein stability index (treatment: DMSO, c terminus: native)","protein stability index (treatment: MLN4924 1 uM, 8 h, c terminus: native)"
RKSLLVVHQRTHTGEKPHTCSECG [ZNF649],3.98 ± 0.21,3.95 ± 0.42,–,–
EADASHCIQQILEAVLHCHQMGVV [CAMK2A],3.3 ± 0.15,2.86 ± 0.71,–,–
APKDSAPQDLAPQVSAHHRSQESL [TBC1D10A],5.36 ± 0.2,5.38 ± 0.14,–,–
IGESMYGDFEEAFDHLQNRLIATK [TENT5C],3.63 ± 0.12,3.59 ± 0.067,–,–
WILFPLLGCYAVYSLLYLEHKGWY [CLPTM1],2.9 ± 0.28,3.4 ± 0.072,–,–
KSFSMAKGLNARMMRGLSYSLTTS [RAB40A],2.35 ± 0.13,2.56 ± 0.25,–,–
PSVADNLLASSDAALSASMASLLE [SERTAD1],4.51 ± 0.18,4.39 ± 0.15,–,–
SMDNTPHTPTPFKNALEKYGPLKP [MYBL2],3.48 ± 0.092,3.7 ± 0.16,–,–
EEVTRLGAQVKELEEKCQQPASEL [TRIM15],5.5 ± 0.12,5.52 ± 0.13,–,–
ILKNLSQVAMRCRCSSMHFLVAEW [SAT1],2.4 ± 0.2,2.65 ± 0.31,–,–
NCLGIRAFADTHSCRELLRIADKF [KLHL20],2.3 ± 0.36,2.2 ± 0.18,–,–
GKDEIEAAVKAAREAFPSWSSRSP [ALDH8A1],4.5 ± 0.32,4.29 ± 0.23,–,–
ALQYAGDGSVLLIPRTMADQQARR [NFE2L1],3.11 ± 0.14,3.19 ± 0.63,–,–
MLRQLLLAALCLAGPPAPARACQL [CCDC3],3.47 ± 0.045,2.76 ± 1.1,–,–
FYHDHTKIIICSQNEEYLLTYINE [PLK2],2.57 ± 0.59,2.58 ± 0.54,–,–
FLDKSGSHGYDMSTFIRRYSRYLN [SNAP91],2.38 ± 0.4,2.64 ± 0.49,–,–
AGLLPPVPAQKFSALTFLRVDQDK [SMOC2],3.21 ± 0.21,3.3 ± 0.29,–,–
HSMKPHPAITATLLDFMCRIIPNF [INTS3],2.96 ± 0.45,3 ± 0.88,–,–
SLLDVAEPGGPGWLPESDCETVTC [SMAD6],4.63 ± 0.27,4.74 ± 0.18,–,–
DECEKAYFYMSCLVKHKRIHSREK [ZNF649],2.69 ± 0.14,2.9 ± 0.35,–,–
GSNPSSSNSSQDSLHKGAKRKGIK [PPFIA4],5.14 ± 0.69,5.53 ± 0.35,–,–
HGEADRSTLKKALPTLSHIQEAQS [YJU2B],4.81 ± 0.3,4.7 ± 0.21,–,–
VPTPKSHLQLLGAVCMFLASKLKE [CCND2],2.11 ± 0.28,1.92 ± 0.39,–,–

Sequence,protein stability index [1],protein stability index [2],"protein stability index (treatment: DMSO, c terminus: native)","protein stability index (treatment: MLN4924 1 uM, 8 h, c terminus: native)"
NVKSEKVYTRHGVPISVTGIAQVK [FLOT1],3.52 ± 0.13,3.65 ± 0.2,–,–
TIPASLDLSPLLGFWQLPPPATQN [PLAGL1],2.74 ± 0.15,2.96 ± 0.32,–,–
FRIYKSVIQAVQKSEEGHPFKAYL [RTN3],2.4 ± 0.23,2.29 ± 0.21,–,–
FTGVITQGRNSLWLSDWVTSYKVM [CPXM2],3.21 ± 0.45,2.94 ± 0.84,–,–
LHSLPGVSLSLENRELWKEFSSVG [TBX6],2.73 ± 0.19,2.83 ± 0.37,–,–
DKILALVPETIHDELQQSFQKSHN [PRIM1],3.85 ± 0.42,3.93 ± 0.47,–,–
LFEEILSNSRQLKWLSCGFMLEIV [FBXO33],3.02 ± 0.69,2.79 ± 0.57,–,–
SPDDPESVKIIFKLPNDSRVERRF [FAF2],3.36 ± 0.23,3.46 ± 0.24,–,–
IRDIRRRGKNKMAAQNCRKRKLDT [NFE2L1],3.84 ± 0.29,3.94 ± 0.32,–,–
SVLLSWEIPENYNSAMPFKILYDD [PTPRD],1.88 ± 0.26,2.29 ± 0.22,–,–
GDKNEEQVLNAIEAYTEHRPEITS [ZER1],5.33 ± 0.2,5.16 ± 0.22,–,–
EFAEMVEREEEDDALDSEGRDSEG [KCNG1],5.68 ± 0.22,5.62 ± 0.29,–,–
QLVRYSADGLLQLGPLGSTAFLPD [GALNT9],2.33 ± 0.27,2.67 ± 0.3,–,–
VRRRYSDFEWLRSELERESKVVVP [SNX3],2.17 ± 0.12,2.33 ± 0.17,–,–
HDSVVEMIRKGGDQTSLLVVDKET [PDZK1],–,4.76 ± 0.33,–,–
RAYRFVQGKDWGFKKFIRRDFLLD [SPOPL],2.48 ± 1.1,2.28 ± 0.29,–,–
YLDVDLTLTREQTERLSHQITSRV [RTN2],3.17 ± 0.18,3.23 ± 0.34,–,–
PAAPFDKKCGRENWTVAFAPDGSY [WSB1],2.63 ± 0.33,2.86 ± 0.13,–,–
GGHTREARIQTLEPDNWMKEVMLF [RSAD1],2.51 ± 0.25,2.34 ± 0.34,–,–
LLSSGFEIDTPDKFGRTCLHAAAA [ANKRD44],2.95 ± 0.39,2.95 ± 0.035,–,–
ALKRQLPFRGDEGIFEESFIEERR [SNX12],3.8 ± 0.16,4.15 ± 0.31,–,–
KRFQTLISKMEPLEIPVETITSEV [CRY1],3.27 ± 0.25,3.5 ± 0.39,–,–
PFEPQALGLSPSWRLTGFSGMKG [SEPHS2],–,–,2.51 ± 0.53,2.64 ± 0.25

Sequence,protein stability index [1],protein stability index [2],"protein stability index (treatment: DMSO, c terminus: native)","protein stability index (treatment: MLN4924 1 uM, 8 h, c terminus: native)"
GGTPIRGALQIEQSEESDQGKYEC [PTPRD],5.57 ± 0.38,5.4 ± 0.31,–,–
FTSGTGHFTAMVWKNTKKMGVGKA [GLIPR2],2.66 ± 0.29,2.74 ± 0.2,–,–
TEISFILGQEFDEVTADDRKVKST [FABP4],4.24 ± 0.43,4.43 ± 0.17,–,–
ENKPSTCSFSIERILGLDQKKDCV [HESX1],3.12 ± 0.49,3.42 ± 0.47,–,–
CKARMERDGYGMTPLLAASVTGHT [FEM1A],2.9 ± 0.32,2.87 ± 0.2,–,–
GSSSFSLKGYPSLMRSQSPKAQPQ [TRIM29],3.76 ± 0.26,3.73 ± 0.28,–,–
KYLKLQDTCRTQLVWLVRELVKSG [INTS3],2.94 ± 0.82,2.6 ± 0.83,–,–
CAHCRAHLANHDDLISKSFQGSQG [YPEL3],2.45 ± 0.34,2.74 ± 0.24,–,–
PGAGLRRPTYTPPSIMPQKHWVYV [ZBTB22],2.26 ± 0.051,2.04 ± 0.27,–,–
EAPDSLNGPLGPSEASIASNLQAM [SMG5],4.99 ± 0.21,4.91 ± 0.25,–,–
VDQKLELNIVPRTKVVYLASETFN [PI4K2A],2.38 ± 0.23,2.51 ± 0.25,–,–
QGMIQLALSGASQPGPSGAPAQRA [RETREG3],4.26 ± 0.1,4.32 ± 0.22,–,–
PEPRSEVVPARLKRASAPTFDNDY [RIPK4],4.86 ± 0.47,4.63 ± 0.36,–,–
EDDDEEDTDKLLNSASDPSLKDGL [PSD2],5.51 ± 0.3,5.46 ± 0.33,–,–
FATQTEELNKQVVSSSEQLQSCQA [KRT34],4.87 ± 0.28,4.86 ± 0.33,–,–
MTTSIRQFTSSSSIKGSSGLGGGS [KRT17],3.58 ± 0.11,3.39 ± 0.43,–,–
KEEVRAALEQREQDAVDQVKVIMD [TRIM29],5.23 ± 0.36,5.39 ± 0.13,–,–
FGHLSVFSTSKWNHLLHHFVIGHL [FADS1],2.58 ± 0.41,2.76 ± 0.78,–,–
ILHTAWHPSENIIAVAATNNLYIF [PPP2R2B],3.17 ± 0.04,–,–,–
AWLPQAKVPFSQEIKDLILPKISD [PI4K2A],2.72 ± 0.059,2.78 ± 0.18,–,–
